Assay results published in PMC3983144 (Bioconjugate chemistry, 2014).
Square brackets hold non-standard residues; d marks the D form. Nle = CCCC[C@H](N)C(=O)O

Biological target: melanocortin 1 receptor (mouse (endogenous in B16F10), UniProt Q01727 1-315)
Assay: radioligand binding

melanocortin 1 receptor, sequence (Q01727 whole entry, one chain of several): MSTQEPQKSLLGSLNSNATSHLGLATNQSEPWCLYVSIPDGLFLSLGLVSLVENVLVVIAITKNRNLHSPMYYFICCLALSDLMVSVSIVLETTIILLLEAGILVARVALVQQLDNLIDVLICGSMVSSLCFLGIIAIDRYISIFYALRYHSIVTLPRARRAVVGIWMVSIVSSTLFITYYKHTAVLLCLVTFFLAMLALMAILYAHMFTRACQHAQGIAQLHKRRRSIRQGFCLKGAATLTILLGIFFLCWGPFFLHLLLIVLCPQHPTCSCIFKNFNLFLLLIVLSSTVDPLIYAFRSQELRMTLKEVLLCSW

IC50: 2.19 ± 0.54 nM
B1: Ac-Cys-Nle-Asp-His-D-Phe-Arg-Trp-Gly-Lys-NH2 (peptide)
chain: Ac-C[Nle]DH[dF]RWGK-NH2
SMILES: CCCC[C@H](NC(=O)[C@H](CS)NC(C)=O)C(=O)N[C@@H](CC(=O)O)C(=O)N[C@@H](Cc1c[nH]cn1)C(=O)N[C@H](Cc1ccccc1)C(=O)N[C@@H](CCCNC(=N)N)C(=O)N[C@@H](Cc1c[nH]c2ccccc12)C(=O)NCC(=O)N[C@@H](CCCCN)C(N)=O
